B1: H11B11: natural Gardnerella prophage endolysin from strain JCP8017A (protein)
chain: MSKRGIDVSVWQGDIDFNAVKASGVEFVIIRAGYGIGHKDKWFEQNYRKAKTTGLDVGAYWYSYASSAGEAAEEAQSCVNILSGKSFEYPVYFDLEEKSQLNRGRDFCDSLITSFCNKLETYGYYAGFYTSLSVANNLVSSHVRDRYALWIAQWNTHCDYQGSYGLWQYSSSGSVDGIAGRVDMDYTYVDYPSVIKKAGLNGYKNGGSYTAPQTSSIDEVAREVINGDWGNGNERKNRLTSAGYDYTSVQNKVNELLGVKAYRKSVDELAREVIRGTWGNGSTRKQRLTQAGYDYDAVQKRVNELL
modifications: EL11_strain_JCP8017A
notes: natural Gardnerella prophage endolysin from strain JCP8017A
B2: H12B12: natural Gardnerella prophage endolysin from strain 3549624 (protein)
chain: MSKKGIDVSVWQGDIDFNAVKASGVEFVIIRAGYGIGHKDKWFEENYRKAKTAGLDVGSYWYSYASSAGEVALEAQSCVNILSGKSFEYPVYFDLEEKSQLNRGRDFCDSLITSFCNKLEACGYYAGFYTSLSVANNLVSSHVRDRYALWIAQWNTHCSYQGSYGLWQYSSSGSVNGIAGRVDMDYAYVDYPSVIKNAGLNGYQNGGSYTAPQTSSIDEVAREVINGDWGNGIERKNRLTSAGYDYTSVQNKVNELLGVKAYRKSVDELAREVIRGTWGNGKTRKQRLTQAGYDYNAVQKRVNELL
modifications: EL12_strain_3549624_non-prophage

Experiments:
[1] = tested on: G. vaginalis sensu stricto strain Gv_9; assay: Quantitative reduction in viable CFU assay in bacterial suspension; type: cell-based, Gardnerella vaginalis sensu stricto; details: Gv_9; 5 hours, pH 5.0, anaerobic; 10 ul endolysin (0.2 mg/ml where possible) + 90 ul 5e7 CFU/ml; average of triplicate
Experimental: The lysis activity on the four main species of Gardnerella of 91 constructs (natural and domain-swapped endolysins) was quantitatively assessed using the method described in Reference Example 2. […]
(§1) The results are shown in FIGS. 8A to 8D together with Tables 5A to 5C. In FIGS. 8A to 8D, the logarithmic Y axis depicts the count of surviving cells. The dotted line indicates the limit of detection (LOD) given by plating of 2 ul of the reaction mix (500 CFU/ml). Each combination of the natural 10 H-domains and the natural 9 B-regions was assessed, including the natural endolysins (H1B1, H2B2, H3B3, etc.), plus H6B6. […] The activity of each construct was measured on each of the 4 main Gardnerella species G. vaginalis sensu stricto, G. leopoldii, G. piotii, and G. swidsinkii. All conditions have been measured in triplicate. The survival after 5 hours incubation at pH 5.0 under anaerobic conditions with endolysins vs. buffer was measured by quantitative plating. The values indicate the log 10 of the ratio of surviving CFU for treated vs. untreated cells. The average of the triplicate measurements is used. In tables 5A and 5B, high negative log 10 values, e.g. −6.7, −5.5, −4.8 etc. are associated with high enzymatic activity, while log 10 values closer to zero or even positive log 10 values are associated with low or no enzymatic activity. […] Inversely, a reduction value of −3.7 means a 10^3.7-fold (=5012-fold) reduction of viable CFU in treated sample vs. untreated control.
(§2) Gardnerella cells were recovered from cryo stock by plating on Chocolate Agar plates (Beckton Dickinson) and incubating for 48 h at 37° C. under anaerobic conditions. For Lactobacilli, BD Schaedler/5% sheep blood agar plates were used instead. Colonies were scraped from the plate, resuspended in Hardy Broth or NYC-III-HS-5.0 at the pH as indicated, and the suspension adjusted to OD (610 or 620 nm as indicated) 0.1. It has to be noted that two Tecan Microplate readers, having respectively a 610 nm or 620 nm filter, have been used interchangeably in the experiments. Although it doesn't make any difference for the experiments, the exact wavelength used is specified in each example. If not stated otherwise, 90 μl cell suspension was mixed with 10 μl endolysin solution, for the different species/endolysin combinations, in 384-well plates. OD(610-620 nm as indicated) was measured at the beginning of the reaction and at the end, either as two measurement points or as a continuous kinetic in a Tecan F200 Microplate reader. The reactions were incubated for 5 hours (or otherwise the time indicated) at 37° C. under anaerobic, micro-aerophilic or aerobic conditions as indicated. Anaerobic conditions intend that oxygen was fully depleted from the container in which the bacteria are incubated (Sigma-Aldrich anaerobic jar or sealable lunch box) with an anaerobic sachet, and the lack of oxygen was confirmed with an anaerobic indicator inside the container. Where micro-aerophilic conditions are indicated, the candle-in-a-jar method was used (tea candle lit in an appropriate sealable container, which reduces oxygen levels until the flame dies out). Then each well was diluted in 5 steps (10^−1 to 10^−5) using 96-U-well bottom plates, and 2 μl of each dilution of each reaction mix are plated on BD Chocolate agar plates or BD Schaedler/5% sheep blood agar plates for Gardnerella and Lactobacilli, respectively, for detecting and quantifying surviving CFU. Detection plates were incubated at 37° C. for 48 hours under anaerobic conditions.

[2] = tested on: G. piotii strain Gv_17; assay: as above; type: cell-based, Gardnerella piotii; details: 5 hours, pH 5.0, anaerobic, 10 ul endolysin (0.2 mg/ml where possible) + 90 ul 5e7 CFU/ml, average of triplicate
Experimental: (§3) The lysis activity on the four main species of Gardnerella of 91 constructs (natural and domain-swapped endolysins) was quantitatively assessed using the method described in Reference Example 2. Briefly, 90 ul 5e7 CFU/ml of the indicated strain were incubated for 5 hours at pH 5.0 under anaerobic conditions with 10 ul endolysin (concentration adjusted to 0.2 mg/ml where possible, see Table 4).
as §1, §2

[3] = tested on: G. swidsinskii strain Gv_23; assay: as above; type: cell-based, Gardnerella swidsinskii; details: 5 hours, pH 5.0, anaerobic, 10 ul endolysin (0.2 mg/ml where possible) + 90 ul 5e7 CFU/ml, average of triplicate
Experimental: as §3, §1, §2

[4] = tested on: four Gardnerella strains (Gv_9, Gv_11, Gv_17, Gv_23); assay: CFU reduction averaged across the four Gardnerella strains, with activity ranks; type: cell-based; details: for average of the log 10 activities of each construct across the four Gardnerella strains: pH 5.0, 5 hours, anaerobic; for activity rank of all endolysins: rank 1-91, based on the data of Table 5B
Experimental: as §3, §1
as §2, with “out).” for “out). Then each well was diluted in 5 steps (10^−1 to 10^−5) using 96-U-well bottom plates, and 2 μl of each dilution of each reaction mix are plated on BD Chocolate agar plates or BD Schaedler/5% sheep blood agar plates for Gardnerella and Lactobacilli, respectively, for detecting and quantifying surviving CFU. Detection plates were incubated at 37° C. for 48 hours under anaerobic conditions.”

Molecule | log 10 of the ratio of surviving CFU for treated vs. untreated cells [1] | log 10 of the ratio of surviving CFU for treated vs. untreated cells [2] | log 10 of the ratio of surviving CFU for treated vs. untreated cells [3] | average of the log 10 activities of each construct across the four Gardnerella strains [4] | activity rank of all endolysins [4]
B1 | 0.1 log 10 | −1.0 log 10 | −3.5 log 10 | −1.5 log 10 | 57
B2 | −0.2 log 10 | −0.3 log 10 | −1.9 log 10 | −0.9 log 10 | 73

From patent US20220315908A1, “NOVEL GARDNERELLA ENDOLYSINS AND USES THEREOF” (priority 2019, published 2022)
